Experimental data reported in the Human Domainome abundance scans (Beltran et al. 2025).

B1: Activity-dependent neuroprotector homeobox protein, residues 770 to 810; numbered along this chain, Q9H2P0 (parent)
chain: FLTKYFNKQPYPTRREIEKLAASLWLWKSDIASHFSNKRKK

Variants of: B1
Test: abundance fitness (aPCA) (normalised: wild type 0, dead -1); higher = more abundant; growth selection in yeast, the domain comes from the species named
Details: Homo sapiens

Abundance fitness: each site, then its substitutions
R39: C -0.189 | W 0.009 | L 0.031 | Q -0.195 | N -0.012 | V -0.185 | E -0.249 | G -0.195 | F -0.157 | S -0.085 | I -0.035 | A -0.076 | M 0.134 | P -0.232
S23: A -0.177 | F -0.614 | T -0.075 | M -0.36 | K 0.262 | L -0.211 | G -0.182 | W -0.091 | R 0.276 | Y -0.364 | Q -0.404 | I -0.432 | P -0.12 | D -0.002 | E -0.116 | C -0.119 | V -0.101 | N -0.074 | H -0.103
L24: D -0.033 | Q -0.783 | R -0.339 | S -0.483 | T -0.212 | E -0.82 | G -0.228 | C -0.122 | I 0.051 | W -0.121 | P -0.289 | V 0.123 | A -0.026 | K -0.321 | F -0.197
W25: D -0.159 | Y -0.233 | N -0.021 | M -0.009 | T 0.141 | S 0.134 | R 0.254 | F -0.168 | V 0.133 | K 0.361 | Q 0.068 | H 0.071 | L 0.097 | P -0.176 | A 0.064 | E 0.13 | C -0.14
D30: A -0.247 | T -0.182 | L -0.376 | G -0.025 | K 0.071 | M -0.054 | H -0.124 | E -0.124 | W -0.01 | Y -0.082 | V -0.317 | R -0.026 | F -0.257 | Q 0 | P 0.056
K38: P -0.206 | F -0.269 | C -0.193 | L -0.197 | A -0.167 | S -0.183 | V -0.119 | G -0.09 | Y -0.433 | I -0.182 | R -0.115 | H -0.112 | W -0.242 | E -0.327 | N -0.298 | T -0.229 | Q -0.216
K40: A -0.013 | E -0.278 | C -0.097 | N -0.425 | W -0.137 | I -0.27 | R -0.156 | F -0.098 | V -0.461 | T 0.009 | S -0.259 | G -0.06 | P -0.28 | L -0.352 | M -0.069 | D -0.253
L26: V 0.037 | C -0.014 | Q 0.122 | K 0.341 | I -0.134 | R 0.198 | H 0.253 | G 0.101 | P 0.343 | W 0.044 | A -0.116 | E 0.127 | D -0.004 | S 0.033 | Y -0.151 | M 0.115 | T 0.022 | F 0.069
A21: I -0.169 | W 0.008 | Q -0.328 | S -0.012 | H -0.413 | K 0.138 | R -0.021 | Y -0.177 | G 0.202 | L -0.082 | V -0.128 | P -0.3 | M 0.083
I31: L -0.043 | V 0.16 | T -0.061 | W -0.129 | G -0.129 | Y -0.189 | D 0.022 | P -0.098 | Q -0.116 | E -0.23 | C -0.075 | N -0.153 | A 0.109 | F -0.197 | S -0.154 | R -0.205 | M 0.056 | K -0.276
S33: V -0.276 | G -0.023 | C -0.058 | D -0.267 | P -0.01
